{"source": "patent US12571800B2", "about": "“Means and methods for treating angiogenesis-related diseases” (Heidelberg Biotech GmbH, priority 2011, dated 2026)", "key": {"HUVECs": {"tested_on": "HUVECs", "assay": "Immunofluorescence, endothelial cell surface binding", "type": "cell-based, human", "procedure": "HUVECs were incubated with Fc-endostatin and detected with Alexa 488 IgG or human NC-1 (hNC-1) trimer and detected by anti-His tag monoclonal antibody.\n1.5 Immunocytochemistry. HUVECs were plated and grown on cover slips. […] The slips were incubated in the blocking buffer (2% BSA PBS) for 30 min. For hFc-endostatin or hFc groups, the slides were incubated with Alexa 488 antihuman IgG for imaging. For hNC-1 or IgG groups, the slides were incubated with mouse anti-His-tag monoclonal antibody, then probed by Alexa 488 anti-mouse IgG. Anti-fibronectin antibody (R&D) was used for secondary staining for all slides and probed by Alexa 594 anti-goat IgG and imaged by confocal-microscopy. DAPI counterstaining of nuclei is shown in blue.\n2.3 Binding of oligomeric hFc-endostatin and hNC-1 to HUVECs. Immunoflourescence technique was employed to detect endothelial cell surface binding of oligomeric endostatin and NC-1."}, "ASPC-1 xenograft": {"tested_on": "ASPC-1 xenograft", "assay": "Immunofluorescence distribution in ASPC-1 xenograft mice", "details": "mouse, in vivo", "from_the_text": "Immunohistochemistry was used to verify the distribution of Fc-endostatin in ASPC-1 xenograft mice after treatments. (A) The exogenous endostatin was detected by Alexa 488-labeled antibody (green) and vessel marker, CD31 was used and detected by Alexa 594-labeled antibody (red) in tumor, heart and kidney. (B) α-SMA, pericyte marker (red) was used to confirm the endostatin binding to tumor vessels. (C) Exogenous endostatin (green) distribution is similar to fibronectin (red) in tumor. […] (D) Endogenous collagen 18 (green) and fibronectin (red) were detected by polyclonal antibodies against endostatin and fibronectin in non-treated animal tumor. (E) Staining of Fc-endostatin and integrin α5β1. (F) Staining of vW and integrin α5β1. (G) E14.5 mouse brain embryonic sections were used to verify the distribution of fibronectin, VEGF and Fc-endostatin (Bar, 100 μm).\n1.6 Immunohistochemistry. Tumors sections were rinsed by cold PBS and fixed with 4% paraformaldehyde for 10 min with before staining. Human Fc-endostatin was detected by Alexa 488 anti-human IgG. Antibodies to collagen 18 (R&D), fibronectin (R&D), integrin α5 (R&D) CD31 (BD Pharmingen, San Jose, CA) and von Willebrand Factor (Dako, Carpinteria, CA), α-SMA (Dako, Carpinteria, CA) were used for staining. The primary antibodies were detected by Alexa 488 or 594-labeled secondary antibodies (Molecular Probes, Eugene, OR). The sections were imaged by confocal-microscopy (model DM IRE2: Leica).\nImmunofluorescence (IF) analysis was used to verify the systemic distribution of hFc-endostatin in an ASPC-1 xenograft animal model. […] In addition to CD31 (endothelial cell) staining, the pericyte marker, α-SMA was used to confirm the interaction of endostatin with blood vessels (FIG. 2B). To examine binding of endostatin to fibronectin, hFc-endostatin treated tumor sections of xenograft models were prepared. […] Co-localization of endogenous collagen 18 and endogenous fibronectin has also been detected (FIG. 2D). […] In addition, ex vivo E14.5 mouse brain embryonic sections were used to confirm this phenomenon. […]"}, "[1]": {"details": "in vivo, cited from earlier work"}, "[2]": {"details": "in vivo; cited from earlier work"}, "Lewis Lung Cancer tumors": {"tested_on": "Lewis Lung Cancer tumors", "assay": "Sequential in-vivo passaging of LLC tumors under Fc-endostatin", "design": "species or system C57/B16 mice", "procedure": "Dimerization of the NC-1 endostatin domains were achieved using IgG-Fc. […] Sequential in-vivo tumor passaging was performed to achieve prolonged and continuous exposure to anti-angiogenic therapy to enrich for the resistant tumor cell population.\nMurine Lewis Lung Carcinoma (LLC) tumors were implanted s.c. into C57/B16 mice. Tumors were treated with a murine oligomeric-NC1 fragment, mFc-endostatin, at doses indicated. LLC tumors were exposed in-vivo for a prolonged period to mFc-endostatin by sequential transplantation of tumors (up to four passages, p4) once they evade therapy and reach a size of approximately 1000-2000 mm^3. Control tumors were also sequentially transplanted into new mice without mFc-endostatin treatment. Tumor volume was measured by caliper measurement (FIG. 8). After four passages, both mFc-endostatin resistant as well as control tumors were excised, total RNA was isolated and after QC hybridized on genome-wide microarrays for transcriptional analysis. Microarray data were analyzed using SUMO software package. Quantitative real-time RT-PCR was performed using Taqman technology to confirm the expression of candidate genes identified by microarray analysis."}}, "note": "Where two headings read alike, the source gives them in different places.", "data": [{"molecule": "Fc-endostatin: human endostatin with the Fc domain at its N-terminus, expressed in NS/0 cells (protein, left off: a dimerising Fc or GST, human endostatin with the Fc domain at its N-terminus, expressed in NS/0 cells) HSHRDFQPVLHLVALNSPLSGGMRGIRGADFQCFQQARAVGLAGTFRAFLSSRLQDLYSIVRRADRAAVPIVNLKDELLFPSWEALFSGSEGPLKPGARIFSFDGKDVLRHPTWPQKSVWHGSDPNGRRLTESYCETWRTEAPSATGQASSLLGGRLLGQSAASCHHAYIVLCIENSFMTASK", "values": [{"measurement": "binding to HUVECs", "setting": "HUVECs; cells cultured only for 24 hours", "result": "poor binding"}, {"measurement": "binding to HUVECs", "setting": "HUVECs; incubation time prolonged to 72 hours", "result": "significant binding"}, {"measurement": "co-localization with fibronectin in tumor sections", "setting": "ASPC-1 xenograft", "result": "co-localization with endogenous fibronection"}, {"measurement": "co-localization with integrin α5β1", "setting": "ASPC-1 xenograft", "result": "co-localized with integrin α5β1"}, {"measurement": "systemic distribution (antibody to Fc)", "setting": "ASPC-1 xenograft", "result": "found not only in tumor but also in heart and kidney endothelial cells"}, {"measurement": "half-life in circulation", "setting": "[1]", "result": "longer half-life than endostatin"}, {"measurement": "half-life in circulation", "setting": "[1]; listed as endostatin fused to the Fc domain of an IgG antibody", "result": "longer than a week"}, {"measurement": "smaller dose required for the same tumor reduction vs endostatin alone", "setting": "[2]", "result": "50-100 fold"}, {"measurement": "tumor growth, passage 4 (P4)", "setting": "Lewis Lung Cancer tumors; continuous exposure over four passages", "result": "growing even faster than non-treated control p4 tumors"}, {"measurement": "tumor growth, first passage (p1)", "setting": "Lewis Lung Cancer tumors; p1", "result": "strong initial inhibition of tumor growth"}]}]}
